From patent US20210380649A1 (BIO TECHNE, published 2021)
Values belong to the binder of their own block, whether it stands above or below them.

How the values were obtained:
[1] = target: T1, recombinant mouse (rm) Wnt3a biotinylated protein (mouse, UniProt P27467 19-352, biotinylated (sites not given)); test: ELISA: in-solution binding with biotinylated mouse Wnt3a (100 ng/mL), capture on streptavidin plate, detection with mouse anti-His antibody, FIG. 8
T1 construct: also called biotinylated mouse Wnt3a protein
Experimental: (§1) Purified recombinant mouse sFRP proteins were tested in ELISA binding assays with a biotinylated mouse Wnt3a protein. […] His tagged-mouse sFRP2 and His tagged-mouse sFRP3 were detected with a mouse anti-His antibody. HA tagged-mouse sFRP5 was detected with a mouse anti-HA antibody.
(§2) A 96-well tissue culture plate was blocked with 1% BSA in PBS and used as an in-solution binding plate. 120 μL of total volume containing 100 ng/mL recombinant mouse (rm) Wnt3a biotinylated protein and sFRPs (1:3 serial dilution) were incubated overnight at 4° C. in the binding plate. Then 100 μL of binding solution was transferred to streptavidin coated 96-well ELISA plate, incubating overnight at 4° C. followed by the HRP detection. The mouse sFRP1 was detected with a goat anti-mouse sFRP1 antibody, mouse sFRP2 and mouse sFRP3 were His-tagged and were detected with a mouse anti-His antibody, mouse sFRP4 was detected with a sheep anti-mouse sFRP4 antibody, and the HA-tagged mouse sFRP5 was detected with a mouse […]. […] secondary antibodies were used to detect the primary antibodies followed by colorimetric readouts.

mouse Wnt1 [2] = target: T2, mouse Wnt1 (mouse, UniProt P04426 28-370); test: cell-based or functional assay
T2 sequence (looked up): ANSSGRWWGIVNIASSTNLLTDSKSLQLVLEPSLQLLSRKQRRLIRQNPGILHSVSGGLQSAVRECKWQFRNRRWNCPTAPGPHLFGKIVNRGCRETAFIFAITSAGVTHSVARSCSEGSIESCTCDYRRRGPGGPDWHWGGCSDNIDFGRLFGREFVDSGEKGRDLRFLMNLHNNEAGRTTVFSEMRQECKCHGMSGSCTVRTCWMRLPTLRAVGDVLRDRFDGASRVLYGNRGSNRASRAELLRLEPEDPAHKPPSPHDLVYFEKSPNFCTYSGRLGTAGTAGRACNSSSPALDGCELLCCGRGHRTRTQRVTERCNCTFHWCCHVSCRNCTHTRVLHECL

[3] = target: T1, recombinant mouse (rm) Wnt3a …; test: ELISA: in-solution binding with biotinylated mouse Wnt3a (100 ng/mL), capture on streptavidin plate, detection with goat anti-sFRP1 antibody, FIG. 8
Experimental: as §1, §2

mouse Wnt1 [4] = target: T2, mouse Wnt1; test: SDS-PAGE with Coomassie Blue of the gel-filtration purified complex, densitometry, FIG. 4F
Description: FIG. 4A. Conditioned media from CHO cells co-expressing msFRP1 and mWnt-1 were loaded onto SP Sepharose column, and bound proteins were eluted with a linear gradient of high salt buffer. The distinct late elution peak was the position that sFRP was usually eluted. FIG. 4B. Fractions collected from SP elution were loaded onto 15 percent (%) SDS-PAGE and stained with silver. The 37 kDa bands represent sFRP1. FIG. 4C. The same fractions of FIG. 4B were subjected to Western blot probed with antibody against mWnt-1. mWnt-1 was detected as a ˜52 kDa band that is present in the same fractions where sFRP1 was detected. FIG. 4D. Pool from a SP Sepharose column was loaded and eluted from a gel filtration (Superdex 200) column. The earlier-eluted peak contained the sFRP1/Wnt-1 complex, while the later-eluted peak contained the free sFRP. FIG. 4E. Fractions collected from gel filtration elution were loaded onto a 15% SDS-PAGE gel and stained with Coomassie blue. The lower band (37 kDa) represents sFRP1 and the upper band (52 kDa) represents Wnt-1. FIG. 4F. sFRP1/Wnt-1 complex purified from a gel filtration column was loaded onto a 15% SDS-PAGE gel and stained with Coomassie blue. Two bands, at 37 kDa and 52 kDa, were observed, with a roughly 1:1 molar ratio.

[5] = target: T1, recombinant mouse (rm) Wnt3a …; test: ELISA: in-solution binding with biotinylated mouse Wnt3a (100 ng/mL), capture on streptavidin plate, detection with mouse anti-HA antibody, FIG. 8
Experimental: as §1, §2

T1 sequence (P27467 19-352 limits assumed): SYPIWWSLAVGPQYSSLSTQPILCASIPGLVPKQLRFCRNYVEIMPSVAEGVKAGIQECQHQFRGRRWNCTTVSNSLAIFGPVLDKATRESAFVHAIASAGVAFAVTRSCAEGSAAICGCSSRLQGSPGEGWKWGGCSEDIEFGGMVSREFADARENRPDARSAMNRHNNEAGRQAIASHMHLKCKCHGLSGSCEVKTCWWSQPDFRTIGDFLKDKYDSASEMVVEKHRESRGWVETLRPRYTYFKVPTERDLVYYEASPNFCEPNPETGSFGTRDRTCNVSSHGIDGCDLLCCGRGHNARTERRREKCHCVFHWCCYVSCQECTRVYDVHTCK

- fold induction above background, HEK293 TCF9-SEAP hFz4/hLRP5 Wnt Reporter assay, conditioned media of CHO cells co-expressing mWnt1 and msFRP1 (mouse Wnt1 [2]): 22 fold
- binding result [3]: binds
- molar ratio of the two bands in the purified complex (mouse Wnt1 [4]): ~1 molar ratio (sFRP1:Wnt-1)
B2: mouse sFRP1 (other, UniProt Q8C4U3 32-314, looked up)
chain: SEYDYVSFQSDIGSYQSGRFYTKPPQCVDIPVDLRLCHNVGYKKMVLPNLLEHETMAEVKQQASSWVPLLNKNCHMGTQVFLCSLFAPVCLDRPIYPCRWLCEAVRDSCEPVMQFFGFYWPEMLKCDKFPEGDVCIAMTPPNTTEASKPQGTTVCPPCDNELKSEAIIEHLCASEFALRMKIKEVKKENGDKKIVPKKKKPLKLGPIKKKELKRLVLFLKNGADCPCHQLDNLSHNFLIMGRKVKSQYLLTAIHKWDKKNKEFKNFMKRMKNHECPTFQSVFK
notes: Secreted protein; also called msFRP1; msFRP-1

- fold induction above background, HEK293 TCF9-SEAP hFz4/hLRP5 Wnt Reporter assay, conditioned media of CHO cells co-expressing mWnt1 and msFRP1-His (mouse Wnt1 [2]): 17 fold
B3: mouse sFRP1-His (other, UniProt Q8C4U3 32-314, looked up, not shown: small tags and cut ends)
chain: SEYDYVSFQSDIGSYQSGRFYTKPPQCVDIPVDLRLCHNVGYKKMVLPNLLEHETMAEVKQQASSWVPLLNKNCHMGTQVFLCSLFAPVCLDRPIYPCRWLCEAVRDSCEPVMQFFGFYWPEMLKCDKFPEGDVCIAMTPPNTTEASKPQGTTVCPPCDNELKSEAIIEHLCASEFALRMKIKEVKKENGDKKIVPKKKKPLKLGPIKKKELKRLVLFLKNGADCPCHQLDNLSHNFLIMGRKVKSQYLLTAIHKWDKKNKEFKNFMKRMKNHECPTFQSVFK

Second part, the binder before the results:

B1: His tagged-mouse sFRP2 (other, UniProt P97299 25-295, looked up)
chain: LFLFGQPDFSYKRSNCKPIPANLQLCHGIEYQNMRLPNLLGHETMKEVLEQAGAWIPLVMKQCHPDTKKFLCSLFAPVCLDDLDETIQPCHSLCVQVKDRCAPVMSAFGFPWPDMLECDRFPQDNDLCIPLASSDHLLPATEEAPKVCEACKTKNEDDNDIMETLCKNDFALKIKVKEITYINRDTKIILETKSKTIYKLNGVSERDLKKSVLWLKDSLQCTCEEMNDINAPYLVMGQKQGGELVITSVKRWQKGQREFKRISRSIRKLQC
notes: also called msFRP2; not shown: His tag
- binding result [1]: binds

B4: HA tagged-mouse sFRP5 (other, UniProt Q9WU66 22-314, looked up)
chain: APTRGQEYDYYGWQAEPLHGRSYSKPPQCLDIPADLPLCHTVGYKRMRLPNLLEHESLAEVKQQASSWLPLLAKRCHSDTQVFLCSLFAPVCLDRPIYPCRSLCEAARAGCAPLMEAYGFPWPEMLHCHKFPLDNDLCIAVQFGHLPATAPPVTKICAQCEMEHSADGLMEQMCSSDFVVKMRIKEIKIDNGDRKLIGAQKKKKLLKAGPLKRKDTKKLVLHMKNGASCPCPQLDNLTGSFLVMGRKVEGQLLLTAVYRWDKKNKEMKFAVKFMFSYPCSLYYPFFYGAAEPH
notes: not shown: HA tag
- binding result [5]: binds
